Data published in PMC3821638, “Molecular Cloning and Characterization of the Calcineurin Subunit A from Plutella xylostella” (International Journal of Molecular Sciences, 2013).

Tested on: T1, O=[N+]([O-])c1ccc(OP(=O)(O)O)cc1
T1 construct: catalytic (phosphatase) domain CNA1–341 (PxCNα), His-tagged, expressed in E. coli
Experiment: Michaelis-Menten kinetics of purified rPxCNα (Km)
Format: biochemical, Plutella xylostella
Conditions: Mn2+ ([…] MnCl2 in assay buffer)

Calcineurin subunit A (PxCNA), catalytic domain PxCNα (Plutella xylostella), sequence (chain, as listed by the source): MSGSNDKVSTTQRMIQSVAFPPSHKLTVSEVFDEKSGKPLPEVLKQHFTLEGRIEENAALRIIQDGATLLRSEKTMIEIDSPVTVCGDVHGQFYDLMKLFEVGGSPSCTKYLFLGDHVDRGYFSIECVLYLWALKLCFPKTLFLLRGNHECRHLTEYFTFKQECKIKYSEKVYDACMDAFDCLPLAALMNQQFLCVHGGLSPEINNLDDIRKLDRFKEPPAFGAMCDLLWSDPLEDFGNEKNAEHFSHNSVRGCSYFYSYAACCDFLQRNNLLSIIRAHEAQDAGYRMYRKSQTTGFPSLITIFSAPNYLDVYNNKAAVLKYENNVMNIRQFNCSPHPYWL

For “Calcineurin subunit A (PxCNA), catalytic domain PxCNα (Plutella xylostella)”, the Km was 4.6 mM.
